# Results taken from patent US20260000752A1.
# Biological target: human IgG (used as a control) (human)
# Experiment: ELISA pH 7.4; human IgG control coated, biotinylated FcRn titrated, streptavidin-HRP
substance,measurement,value
"recombinant human FcRn, biotinylated (R&D Systems) (from UniProt P55899 24-297; P61769 21-119) (receptor)",EC50,0.0292 µg/mL
